Results published in article PMC9352680, “A comprehensive thermodynamic model for RNA binding by the Saccharomyces cerevisiae Pumilio protein PUF4”.

T1: PUF4 RNA-binding domain (Saccharomyces cerevisiae, UniProt P25339 537-888)
T1 sequence: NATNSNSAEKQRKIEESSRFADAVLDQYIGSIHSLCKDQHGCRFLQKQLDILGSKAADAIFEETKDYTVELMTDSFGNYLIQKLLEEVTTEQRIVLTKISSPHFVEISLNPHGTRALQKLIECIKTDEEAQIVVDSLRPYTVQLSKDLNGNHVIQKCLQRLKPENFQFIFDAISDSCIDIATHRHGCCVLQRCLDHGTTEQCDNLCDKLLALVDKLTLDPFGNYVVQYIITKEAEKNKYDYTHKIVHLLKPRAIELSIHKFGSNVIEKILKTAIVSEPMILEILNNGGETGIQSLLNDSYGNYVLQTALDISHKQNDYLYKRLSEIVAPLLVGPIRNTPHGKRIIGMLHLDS


Molecular target: T1, PUF4 RNA-binding domain
Assay: Mg; RNA-MaP; 20 mM Na-HEPES pH 7.4, 30 mM KOAc, 0.75 mM MgCl2, 0.1% Tween-20, 5% glycerol, 0.1 mg/mL BSA, 2 mM DTT; 25 C; 0.0125-409.6 nM protein
Conditions: tags: N-His6-TEV cleaved; C-SNAP kept, Cy3B-labelled; label: tethered on chip by stalled RNA polymerase

Row | Binder | Kd [nM]
1 | UCUCUUGCUAUAUAUUAUGUCUCUU (ssRNA) [Id_ii_S1_P4E.3_K4.2_C4.2_[C-2G]_[T-1C]_H4.2_A4.1_F4.1_T4.2_[G10T]_[T11G]] | 42
2 | UCUCUUGCUAUAUAUUAUCUCUCUU (ssRNA) [Id_ii_S1_P4E.3_K4.2_C4.2_[C-2G]_[T-1C]_H4.2_A4.1_F4.1_T4.2_[G10T]_[T11C]] | 38.5
3 | UCUCUUGCUAUAUAUUAUAUCUCUU (ssRNA) [Id_ii_S1_P4E.3_K4.2_C4.2_[C-2G]_[T-1C]_H4.2_A4.1_F4.1_T4.2_[G10T]_[T11A]] | 57.3
4 | UCUCUUUGUCAAUUAUCUCUU (ssRNA) [Ib_S1_P4E.1_K4.1_C4.1_H4.1_[A4C]_A4.1_[T5A]_F4.1_T4.1] | 134
5 | UCUCUUGCUAUAUAUUAUUUCUCUU (ssRNA) [Id_ii_S1_P4E.3_K4.2_C4.2_[C-2G]_[T-1C]_H4.2_A4.1_F4.1_T4.2_[G10T]] | 29.8
6 | UCUCUUGCUAUAUAUUAACUCUCUU (ssRNA) [Id_ii_S1_P4E.3_K4.2_C4.2_[C-2G]_[T-1C]_H4.2_A4.1_F4.1_T4.2_[G10A]_[T11C]] | 55
7 | UCUCUUGCUAUAUAUUAAAUCUCUU (ssRNA) [Id_ii_S1_P4E.3_K4.2_C4.2_[C-2G]_[T-1C]_H4.2_A4.1_F4.1_T4.2_[G10A]_[T11A]] | 126
8 | UCUCUUGCUAUAUAUUAAUUCUCUU (ssRNA) [Id_ii_S1_P4E.3_K4.2_C4.2_[C-2G]_[T-1C]_H4.2_A4.1_F4.1_T4.2_[G10A]] | 70.2
9 | UCUCUUGUUAUAUAUUACCUCUCUU (ssRNA) [Id_ii_S1_P4E.3_K4.2_C4.2_[C-2G]_H4.2_A4.1_F4.1_T4.2_[G10C]_[T11C]] | 13
10 | UCUCUUGUUAUAUAUUACUUCUCUU (ssRNA) [Id_ii_S1_P4E.3_K4.2_C4.2_[C-2G]_H4.2_A4.1_F4.1_T4.2_[G10C]] | 16.9
11 | UCUCUUGUUAUAUAUUAUGUCUCUU (ssRNA) [Id_ii_S1_P4E.3_K4.2_C4.2_[C-2G]_H4.2_A4.1_F4.1_T4.2_[G10T]_[T11G]] | 15.3
12 | UCUCUUGUUAUAUAUUAUCUCUCUU (ssRNA) [Id_ii_S1_P4E.3_K4.2_C4.2_[C-2G]_H4.2_A4.1_F4.1_T4.2_[G10T]_[T11C]] | 12.5
13 | UCUCUUGUUAUAUAUUAUUUCUCUU (ssRNA) [Id_ii_S1_P4E.3_K4.2_C4.2_[C-2G]_H4.2_A4.1_F4.1_T4.2_[G10T]] | 22.3
14 | UCUCUUGUUAUAUAUUAAAUCUCUU (ssRNA) [Id_ii_S1_P4E.3_K4.2_C4.2_[C-2G]_H4.2_A4.1_F4.1_T4.2_[G10A]_[T11A]] | 26.8
15 | UCUCUUUGUUCAUUAUCUCUU (ssRNA) [Ib_S1_P4E.1_K4.1_C4.1_H4.1_[A4T]_A4.1_[T5C]_F4.1_T4.1] | 21.1
16 | UCUCUUGUUAUAUAUUAAUUCUCUU (ssRNA) [Id_ii_S1_P4E.3_K4.2_C4.2_[C-2G]_H4.2_A4.1_F4.1_T4.2_[G10A]] | 21

Row | Binder | Kd [nM]
17 | UCUCUUGUUAUAUAUUAGUUCUCUU (ssRNA) [Id_ii_S1_P4E.3_K4.2_C4.2_[C-2G]_H4.2_A4.1_F4.1_T4.2] | 8.13
18 | UCUCUUUGUAUAUAUUAUCUCUCUU (ssRNA) [Id_ii_S1_P4E.3_K4.2_C4.2_[C-2T]_[T-1G]_H4.2_A4.1_F4.1_T4.2_[G10T]_[T11C]] | 4.63
19 | UCUCUUUGUAUAUAUUAUUUCUCUU (ssRNA) [Id_ii_S1_P4E.3_K4.2_C4.2_[C-2T]_[T-1G]_H4.2_A4.1_F4.1_T4.2_[G10T]] | 4.46
20 | UCUCUUUGUAUAUAUUAAGUCUCUU (ssRNA) [Id_ii_S1_P4E.3_K4.2_C4.2_[C-2T]_[T-1G]_H4.2_A4.1_F4.1_T4.2_[G10A]_[T11G]] | 8.46
21 | UCUCUUUGUAUAUAUUAACUCUCUU (ssRNA) [Id_ii_S1_P4E.3_K4.2_C4.2_[C-2T]_[T-1G]_H4.2_A4.1_F4.1_T4.2_[G10A]_[T11C]] | 2.38
22 | UCUCUUUGUAUAUAUUAAUUCUCUU (ssRNA) [Id_ii_S1_P4E.3_K4.2_C4.2_[C-2T]_[T-1G]_H4.2_A4.1_F4.1_T4.2_[G10A]] | 4.75
23 | UCUCUUUGUAUAUAUUAGGUCUCUU (ssRNA) [Id_ii_S1_P4E.3_K4.2_C4.2_[C-2T]_[T-1G]_H4.2_A4.1_F4.1_T4.2_[T11G]] | 7.71
24 | UCUCUUUGUAUAUAUUAGCUCUCUU (ssRNA) [Id_ii_S1_P4E.3_K4.2_C4.2_[C-2T]_[T-1G]_H4.2_A4.1_F4.1_T4.2_[T11C]] | 3.46
25 | UCUCUUUGUAUAUAUUAGUUCUCUU (ssRNA) [Id_ii_S1_P4E.3_K4.2_C4.2_[C-2T]_[T-1G]_H4.2_A4.1_F4.1_T4.2] | 3.67
26 | UCUCUUUGUAUUAGUAUCUCUU (ssRNA) [Ia_S1_P5E.1_K5.1_C5.1_H5.1_A5.1_F5.1_[T8G]_T5.1] | 18.2
27 | UCUCUUUGUUAAUUAUCUCUU (ssRNA) [Ib_S1_P4E.1_K4.1_C4.1_H4.1_[A4T]_A4.1_[T5A]_F4.1_T4.1] | 43.5
28 | UCUCUUUCUAUAUAUUACGUCUCUU (ssRNA) [Id_ii_S1_P4E.3_K4.2_C4.2_[C-2T]_[T-1C]_H4.2_A4.1_F4.1_T4.2_[G10C]_[T11G]] | 30.7
29 | UCUCUUUCUAUAUAUUACCUCUCUU (ssRNA) [Id_ii_S1_P4E.3_K4.2_C4.2_[C-2T]_[T-1C]_H4.2_A4.1_F4.1_T4.2_[G10C]_[T11C]] | 25.2
30 | UCUCUUUCUAUAUAUUACAUCUCUU (ssRNA) [Id_ii_S1_P4E.3_K4.2_C4.2_[C-2T]_[T-1C]_H4.2_A4.1_F4.1_T4.2_[G10C]_[T11A]] | 23.1
31 | UCUCUUUCUAUAUAUUACUUCUCUU (ssRNA) [Id_ii_S1_P4E.3_K4.2_C4.2_[C-2T]_[T-1C]_H4.2_A4.1_F4.1_T4.2_[G10C]] | 23.8
